assay: soluble on expression in E. coli; label from the status in PepcDB or PDB records

| Sequence | soluble on expression in E. coli |
| --- | --- |
| MGHHHHHHSHMFNVMVDAKAQSTKLCSMEMGQEFAKMWHQYHSKIDELIEETVKEMITLLVAKFVTILEGVLAKLSRYDEGTLFSSFLSFTVKAASKYVDVPKPGMDVADAYVTFVRHSQDVLRDKVNEEMYIERLFDQWYNSSMNVICTWLTDRMDLQLHIYQLKTLIRMVKKTYRDFRLQGVLDSTLNSKTYETIRNRLTVEEATASVSEGGGLQGISMKDSDEEDEEDD | not soluble |
| MAKGDPKKPKGKMSAYAFFVQTCREEHKKKNPEVPVNFAEFSKKCSERWKTMSGKEKSKFDEMAKADKVRYDREMKDYGPAKGGKKKKDPNAPKRPPSGFFLFCSEFRPKIKSTNPGISIGDVAKKLGEMWNNLNDSEKQPYITKAAKLKEKYEKDVADYKSKGKFDGAKGPAKVARKKVEEEDEEEEEEEEEEEEEEDE | soluble |
| MAHHHHHHMLRRSVVNLQNPARVFRSAAKRQKLDEAVRVDQAGEVAAVRICKYQLLWMSPLDSGVPVVKEILRDELVHEEVMGHLARKHSVRLTLLDPLFHVGAFVMGSCTALLGKDAVMCCHAAVEVTIAQHYNDQLRELQSLEESEGASKGKDEKDWAEVMEYVARFRDEELHHQELGEQNGAENAPAYPLLYNGIRIMCSLGVALAKRI | not soluble |
| MSLLTVGIVDDNPRDLEKLELIVNNMENVELILKANSADEVYHSIQKTPVDLLITDIEMPGMSGYQLADFIQLNNMKTAVIFVTAKSGYAVHAFELNVHDYILKPFNPDRLIQSIDRFTEKKDAGRVTGRLFIRSDGDLVVVPKAEIIFLERTGRTTTIHTINETYETYQSLGELEGDIRESMFIRSHRSFIINLQYVKRFASYSKKSFVVIFEGSSGKALVTKEKLKYLQENYEGHHHHHH | not soluble |
| MSLDPDAGVIFARTAAGAAVALGLLKCGRIWLCPVCSGQDPARPSEEITEAVVSWLQQGGWAYLVTFTARHTAADRLSDLMDALQGTRADAETGTKRRPGAYQRLITGAAWAGDKRRKSNQEGIRGRIGYIGMIRATEVTVGEGAGWHPHIHAIVLVGGRTEGQRGDKRITGTFTPSEDALTEWEDRWRRSGPATLARSTPGFRPPTGARSPGATAGARATASTSSSSVRSGRQRPGRVHRQDAGRQEPGPGAGTRRPQGRPPGQHDVLRTPSRIGDLMGGVPEEEAAGHGSLAWGLDRWAEYETAVSGAGHRVDPLPAPAPGPDRRRHRGRRHGRPVPDRAARRFRDGVQIWDRAWKGLVGRSLDLAVVEAVEGREISMDALGELVQSAGQSRAFLRVLTPQEVTELYDELLRTLARRREQAAERRAAEAAEAEPTTREGHHHHHH | not soluble |
| MGHHHHHHSHMDDAAVLKRRGYLLGINLGEGSYAKVKSAYSERLKFNVAIKIIDRKKAPADFLEKFLPREIEILAMLNHCSIIKTYEIFETSHGKVYIVMELAVQGDLLELIKTRGALHEDEARKKFHQLSLAIKYCHDLDVVHRDLKCDNLLLDKDFNIKLSDFSFSKRCLRDDSGRMALSKTFCGSPAYAAPEVLQGIPYQPKVYDIWSLGVILYIMVCGSMPYDDSNIKKMLRIQKEHRVNFPRSKHLTGECKDLIYHMLQPDVNRRLHIDEILSHCWMQPKARGSPSVA | not soluble |
| MGSDKIHHHHHHMIYIGLPQWSHPKWVRLGITSLEEYARHFNCVEGNTTLYALPKPEVVLRWREQTTDDFRFCFKFPATISHQAALRHCDDLVTEFLTRMSPLAPRIGQYWLQLPATFGPRELPALWHFLDSLPGEFNYGVEVRHPQFFAKGEEEQTLNRGLHQRGVNRVILDSRPVHAARPHSEAIRDAQRKKPKVPVHAVLTATNPLIRFIGSDDMTQNRELFQVWLQKLAQWHQTTTPYLFLHTPDIAQAPELVHTLWEDLRKTLPEIGAVPAIPQQSSLF | not soluble |
| MEKERYFQAETEGEQPETKAEEATAAITQLGQTNVPQMDPDTNIHCLTIVGQIEGHIQLPPQNKATKYEHVIPQIVAIEQNPKIEGLLVILNTVGGDVEAGLAIAEMLASLSKPTVSVVLGGGHSIGVPIAVSCNYSFITETATMTIHPIRLTGLVIGVPQTFEYLDKMQERVVRFVTKHSKISEEKFKELMFSKGNLTRDIGTNVVGPDAVRYGLIDEVGGVSQAMAKLRELIAMRKNGEGKMIQ | not soluble |
| RLNLKAIAERSESLEDFFTRTLPHYCQQQIAIIDARCEFLYQQSHFFENSFLVKEGLINPERFVPMFGMYGLAEAVNLLCEKEGIAARYGKEAAANEVGYRISAQLAEFVANTPVKYGWQKRAMLHAQSGISSDIGTTPGARLPYGDEPDPITHLQTVAPHHAYYYSGISDILTLDETIKRNPQALVQLCLGAFKAGMREFTANVSGNDLVRVTGYMVRLSDLEKYRAEGSRTNTTWL | not soluble |
| MIESNHVVLWNRCLEVIKDNVPETTYNTWFAPIVPLKYEDKTLIVQIPSQFFYEILEEKFVDLLRKTLYKAIGEGTKLMYNVMVDKTSIPNQTVNLEASNRSTAVTPKSIVGGNKAPSFLKAPAVQDLDPHLNPNYNFENFIEGYSNKLSRSVAEAVAQNPAGTAFNPLFLYGASGVGKTHLANAIGTKIKELYADKRVLYVSAHLFQVQYTDSVRNNTTNDFINFYQTIDVLIIDDIQEFAGVTKTQNTFFHIFNHLHQNGKQLILTSDRAPVLLQGMEERLLTRFKWGMVAELEKPTVELRKNILRNKIHRDGLQFPPEVIDYIAENVNESVRDLEGIVIAIMARSTIFNKEIDLDLAQHIVHGVVHNETKAVTIDDILKVVCKHFDLEASAIHTKSRKREVVQARQIAMYLAKNYTDFSTSKIGKFIGNKDHATVLHACKTVKGQLEVDKSFQAEVQEIESLLKKKALEHHHHHH | soluble |
| MGSDKIHHHHHHMANGTTPSVGIALGSGAAKGWAHIGVLNGLAAMGIKPDKVAGCSVGALVGAAYAHDHLPELEEWVRSFSSWDVLGLMDIRWRKGGLIGGDKVFDVLQARIGDVNIENLNRPFAAVATDLYSGQEIWFTEGDLRQAVRASCSMPGILAPVRQGDRWLVDGAVVNPVPVSVSRAMGVDVVIAVDLYGYHSGRIQVLPVSMTSQKNVEAEMDMSARQETGFMDLFARGRDYVSNLTDKFSLGTKSNPGMIAVMSQSMGILEQRHKRARLMGDPPDICIVPEVGNIGTMEFHRADEAIAAGEAAVEKVAHLIEAALWKG | not soluble |
| MAHHHHHHMEISSISETDKNAITRLLSSDLSRTVARHAIIVLHYFRTISDEDLPIDVLLGGCVLYAVKQRQASNANYFLRECLERVKESDIVGFELLLVQVVRHNVLLIETCLRSVFHEVLLENPVAGLDRERTIKVCLHLISFLYRTSWCLFPESAARGAFLVASEKCEIKLGKLSSAFDGPMVKHIAKYLRDQFWN | not soluble |
| MTTHQFEHPLNEKTRIYLRVEALLNQMERASTFSDGIQHQLFFRSLFDMLEIFEQIQLKSELAKDMEKQRLTYRSWLHVEGVDQEMLNSLLTEVDEVHRDLMSAERFGQSLKEDRFLSAIRQRFNLPGGSCCFDLPALHYWLHLPLDRKMRDAQQWMQTVTPLSNALKLWLKLTRETGHYRSRMASNGFYQSDAEDANILRLAIPLEYGVYPMISGHKNRFAIKFIDFHSGQACTQDIAFDLAVCC | not soluble |
| MMQISDTYNQKHSLFNAMNRFIGAVNNMDQTVMVPSLLRDVPLDMEVKDEVHNTIGATNYFSRTDMHGYYILLKSIRNDIEWGVVQGEDRKKDKLSNMEISRLEDGDGEEDLEKQFHYHLSGLHTVLNKLTRKAHILTNRYKEEIGFGSWGH | not soluble |
| MGSDKIHHHHHHMCRWLAYTGNPLQLETVLFNARHSLIDQSLHSRLGYTTTNGDGFGIGWYGEPTDIPFRYRCIQPAWSDRNLREAARAIRAPLFVAHVRSATDTPSQETNCHPFRHGRWLFAHNGLIRNYPAVRRDLMVMIDPDLFPSIEGSTDSEVMFFLALTFGLELAPVTALERMVAFVEETGRKHGVDEPLNMTVCVTDGEQIVAVRYSSEGQSRSLFHSTSFHHLHELYPDDPRIAAAGENAFLVLSEPLADLPGWWEEIPESTVVVARGGQIEQYPFRPQSA | not soluble |
| MIDKSSKRDKEVEPLKDNISILIMGVDGSEMRKSQYGEAVRTDALLLATINKDDKSVKLVSIPRDSRVYIPSRKKLDKITHAHVFGGVESTRDTVERFLNVPVDYYVKFNFESFVQIVDSLGGIDIDVPVTFTEQDSKDQAGMIHLEKGYQHLNGEQALALARTRKIDSDAMRGQRQQLVIEAIAKKAMSVQSISKMGSLLDAVDKNMKTNLTFDDMLAITKNMAGSNLEMEKMQVEGTDKRIGGIYYYIPNEKNVKDISKKLNEHLGVLEHHHHHH | soluble |
| MGSDKIHHHHHHMIRKFVNRKRELEVLEKARLFVVHGRRRVGKTALLRKFLENKRYEKDVEGFSQEISSFINAPVRFESSRDAFKFLREQGKLIVILDEFPYLIEADKGIVSEFQEIVDVMLDNSDVTLILCGSSVGMMEREVPSYKSPLYGRAGGILKVQPFRFFDMVEWFGKDFERLLRIYDVTWGIPKYMEFFRTGSDEEIIANFFDPSAFLFNEARLLLLEELRNPSRYMQIIEAITLWKTRLNEIAQYTGIEPKDLPSYLRVLSNLGIIKREVPITERKGKRWVYVIEDEYFRFYHRFVSPHYEEIESLNPEPAIEDFRKNFNAYLGRTFEKVSREFLTRVIKPSKVGRWWHKGEEIDIVALKGEERKALLVEVKWKELSEKEARRILKDLEHKGELIGMEKWKRCYGLIAKKIENKESIKGEGFFLWDLKDFKSEMI | not soluble |
| MVNRFREKLKPDQYLCRIEGTQFVLVSLENDVSNITQIADELRNVVSKPIMIDDNPFPLTLSIGISYDVGKNRDYLLSTAHNAMDYIRKNGGNGWQFFSPAMNEMVKERLVLGAALKEAISNNQLKLVYQPQIFAETGELYGIEALARWHDPQHGHVPPSRFIPLAEEIGEIENIGRWVIAEACRQLAEWRSQNIHIPALSVNLSALHFRSNQLPNQVSDAMQAWGIDGHQLTVEITESMMMEHDTEIFKRIQILRDMGVGLSVDDFGTGFSGLSRLVSLPVTEIKIDKSFVDRCLTEKRILALLEAITSIGQSLNLTVVAEGVETKEQFEMLRKIHCRVIQGYFFSRPLPAEEIPGWMSSVLPLKI | not soluble |
| MSLDPHAPLAERLRPRTLDDVVGQSHLLGPGKPLRLAFDSGKLHSMILWGPPGVGKTTLARLTAQAFGADFIAISAVLSGVKDIREAVERARMNQKLGRATILFVDEVHRFNKSQQDAFLPHVESGLFTFIGATTENPSFEVVGALLSRAQVYVLKSLTPDELGRLMQRALQELPSLKLADGVDKLLAAYADGDARKLLNLLEQLDTAARTAQVEEADAAFVENALAQSLRRFDKGGEAFYDQISALHKSVRGSDPDASLYWLVRMLDGGADPRYLGRRLVRMASEDIGMADPRALRLALDAVETYERLGSPEGELALAEACLYLACAPKSNAAYVAYNAARAFVEANPSNDVPIHLRNAPTKLMKELGYGRAYRYAHDEPEAYAAGERYFPDDIAEQQFYEPTPRGLEGKIAEKLAHLRELDDEAEKEGHHHHHH | soluble |
| MGSDKIHHHHHHVPGLLPDVDREGLLEYSVVYTDRSLNHMSQLFQGVMRDISNSLKKVYNAKSAVVVPGSGTFGMEAVARQFATNRKCLVIRNGWFSYRWTQIFDMGGIPSESIVLKARPVEEGRQAAYAPPPIEEVVAAIRENKPDLVFAPHVETASGIMLPDAYLRAVADAVHAVDGMFVLDCIASGTVWVDMKASGVDVLISAPQKGWSASPCCGLVMLGELARERIEGTTSTSFACDLRKWLQIMEAYENGGFAYHATMPTDGLATLRDVMKETEAYGFDKVRAEQVELGRRVRSVLADRGFRSVAAEGFEAPGVVVSYTDDDGIRSGKKFADAGLQIAAGVPLQCDEPQDFKTFRIGLFGLDKLHDVEGAVGRFVKGLGSIL | not soluble |

From the DeepSol protein solubility set
